According to patent US20200325187A1 (Genentech, published 2020):
Where two headings read alike, the source gives them in different places.

T1: hVEGF-A (8-109) (human, UniProt P15692 214-315)
T1 sequence (looked up): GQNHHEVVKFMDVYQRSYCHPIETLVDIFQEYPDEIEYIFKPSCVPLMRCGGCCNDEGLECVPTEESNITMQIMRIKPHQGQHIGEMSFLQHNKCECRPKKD

T2: hVEGF-A Q89A (human, UniProt P15692-4 34-135, Q89A)
T2 construct: position probably counted on the mature protein
T2 sequence (looked up): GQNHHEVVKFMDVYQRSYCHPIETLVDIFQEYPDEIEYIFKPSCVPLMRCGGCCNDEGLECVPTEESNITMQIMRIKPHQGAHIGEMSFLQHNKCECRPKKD

T3: hVEGF-A Y21A (human, UniProt P15692-4 34-135, Y21A)
T3 construct: position probably counted on the mature protein
T3 sequence (looked up): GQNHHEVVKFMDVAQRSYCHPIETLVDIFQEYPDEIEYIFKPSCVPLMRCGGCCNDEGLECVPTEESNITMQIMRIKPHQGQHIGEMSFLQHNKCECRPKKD

T4: hVEGF-A K48A (human, UniProt P15692-4 34-135, K48A)
T4 construct: position probably counted on the mature protein
T4 sequence (looked up): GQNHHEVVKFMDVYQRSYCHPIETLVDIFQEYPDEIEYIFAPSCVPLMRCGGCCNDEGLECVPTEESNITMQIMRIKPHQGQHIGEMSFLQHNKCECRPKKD

T5: mouse VEGF-A 164 (mouse, UniProt Q00731-2 27-190)
T5 construct: also called mouse 164
T5 sequence (looked up): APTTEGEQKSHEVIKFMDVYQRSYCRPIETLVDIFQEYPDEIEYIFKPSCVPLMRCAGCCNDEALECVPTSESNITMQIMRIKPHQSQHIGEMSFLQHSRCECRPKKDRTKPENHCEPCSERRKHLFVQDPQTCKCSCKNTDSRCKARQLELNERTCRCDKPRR

T6: rat VEGF-A (rat, UniProt P16612-2 27-190, limits assumed)
T6 construct: also called rVEGF
T6 sequence (looked up): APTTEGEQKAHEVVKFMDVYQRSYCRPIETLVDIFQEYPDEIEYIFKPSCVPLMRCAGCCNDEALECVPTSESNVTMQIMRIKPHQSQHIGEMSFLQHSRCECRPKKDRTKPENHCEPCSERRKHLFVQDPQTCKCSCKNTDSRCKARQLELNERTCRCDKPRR

T7: rabbit VEGF-A (rabbit, UniProt G1T1L9 1-398)
T7 sequence: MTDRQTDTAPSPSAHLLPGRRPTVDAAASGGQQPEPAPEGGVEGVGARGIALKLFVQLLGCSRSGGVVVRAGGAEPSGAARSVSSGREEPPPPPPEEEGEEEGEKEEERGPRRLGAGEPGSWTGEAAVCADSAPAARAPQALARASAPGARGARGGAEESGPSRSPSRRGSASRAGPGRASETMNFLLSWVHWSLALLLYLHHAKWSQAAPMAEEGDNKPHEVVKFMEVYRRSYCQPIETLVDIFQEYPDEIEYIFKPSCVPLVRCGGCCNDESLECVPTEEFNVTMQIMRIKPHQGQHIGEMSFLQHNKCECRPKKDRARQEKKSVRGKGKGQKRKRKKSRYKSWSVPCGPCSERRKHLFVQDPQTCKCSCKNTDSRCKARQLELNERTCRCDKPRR

T8: Flt-4 (human, UniProt P35916 25-776, limits assumed)
T8 sequence (looked up): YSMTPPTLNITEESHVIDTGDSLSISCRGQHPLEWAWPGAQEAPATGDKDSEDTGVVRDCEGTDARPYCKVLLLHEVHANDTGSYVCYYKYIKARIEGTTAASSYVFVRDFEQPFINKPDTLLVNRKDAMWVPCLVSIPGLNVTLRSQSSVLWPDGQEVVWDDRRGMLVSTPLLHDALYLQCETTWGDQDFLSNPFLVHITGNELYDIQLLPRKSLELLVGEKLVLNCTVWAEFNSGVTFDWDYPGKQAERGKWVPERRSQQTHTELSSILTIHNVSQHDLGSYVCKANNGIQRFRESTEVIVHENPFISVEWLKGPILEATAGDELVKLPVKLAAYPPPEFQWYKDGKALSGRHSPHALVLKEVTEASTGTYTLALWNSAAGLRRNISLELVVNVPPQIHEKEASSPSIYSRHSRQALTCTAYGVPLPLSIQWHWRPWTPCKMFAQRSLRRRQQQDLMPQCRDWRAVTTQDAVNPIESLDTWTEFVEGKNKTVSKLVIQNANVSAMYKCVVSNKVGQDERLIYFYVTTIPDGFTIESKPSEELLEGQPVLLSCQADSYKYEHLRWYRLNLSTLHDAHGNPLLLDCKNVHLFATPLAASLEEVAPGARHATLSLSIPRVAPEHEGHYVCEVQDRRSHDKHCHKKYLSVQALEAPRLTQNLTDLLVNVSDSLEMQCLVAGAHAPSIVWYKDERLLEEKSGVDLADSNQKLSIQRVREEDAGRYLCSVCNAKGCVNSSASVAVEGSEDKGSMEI


Assays:
hVEGF-A (8-109) [1] = target: T1, hVEGF-A (8-109); test: SPR
Procedure: (§1) Depending on the format of the assay either a streptavidin sensor (SA) or a dextran-coated (CM5) sensor was utilized as described below.
(§2) Reaction was then quenched by addition of 10 molar excess of Glycine pH 8.0 and the sample was buffer exchanged into PBS using an Amicon 0.5 mL 3000 MWCO ultra-centrifugal filters (EMD Millipore). The biotinylation state of the protein was verified by LC-MS analysis. Biotinylated VEGF-A was then captured on the surface until a resonance unit (RU) signal of about ˜400. For immobilization of VEGF-A on CM5 sensor, the surface was first activated with a mixture of N-ethyl-N′-(3-dimethylaminopropyl)carbodiimide hydrochloride and N-hydroxysuccinimide (EDC/NHS) according to the supplier instructions. VEGF-A was then diluted into coupling buffer (0.1 M Acetate Buffer, pH 5.0) and injected until the signal reached about ˜400 RU followed by a wash with 1 M ethanolamine pH 8.0 to quench remaining activated sites.

hVEGF-A Q89A = target: T2, hVEGF-A Q89A; test: SPR
Procedure: as §1, §2

hVEGF-A [2] = target: T9, hVEGF-A (human, UniProt P15692-4 27-191, limits assumed); test: SPR
T9 construct: also called human VEGF-A; WT
Procedure: as §1, §2

hVEGF-A Y21A = target: T3, hVEGF-A Y21A; test: SPR
Procedure: as §1, §2

hVEGF-A K48A = target: T4, hVEGF-A K48A; test: SPR
Procedure: as §1, §2

hVEGF-A (8-109) [3] = target: T1, hVEGF-A (8-109); test: SPR; remark: listed apart in the source
Procedure: as §1, §2

human VEGF-A 165 = human VEGF-A 165 (human, UniProt P15692-4 27-191); test: SPR
Procedure: as §1, §2

mouse VEGF-A 164 = target: T5, mouse VEGF-A 164; test: SPR
Procedure: as §1, §2

rat VEGF-A = target: T6, rat VEGF-A; test: SPR
Procedure: as §1, §2

rabbit VEGF-A = target: T7, rabbit VEGF-A; test: SPR
Procedure: as §1, §2

hVEGF-A (8-109) [4] = target: T1, hVEGF-A (8-109); test: spot phage ELISA
Procedure: After four rounds of binding selection, individual phage clones were picked and inoculated into 450 μl 2YT media containing 50 µg/ml Carbenecillin and M13-KO7 helper phage in 96-well blocks, which were grown at 37° C. overnight. […] The plates were washed and bound phage was detected with anti-M13-HRP followed by TMB substrate. In these assays, phage binding to BSA alone was tested in parallel to assess background binding. […] Positive clones were subjected to DNA sequence analysis.

hVEGF-A [5] = target: T9, hVEGF-A; test: cell-based or functional assay
hVEGF-A [6] = target: T9, hVEGF-A; test: cell-based or functional assay; remark: listed apart in the source
hVEGF-A [7] = target: T9, hVEGF-A; test: KDR-VEGF competition ELISA
hVEGF-A [8] = target: T9, hVEGF-A; test: phage competition ELISA, soluble CKP
hVEGF-A (8-109) [9] = target: T1, hVEGF-A (8-109); test: spot phage ELISA; remark: listed apart in the source
How it was run: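 Phage clones from four selection rounds were grown overnight at 37 °C with M13-KO7 helper phage. Bound phage was detected with anti-M13-HRP and TMB, with binding to BSA alone run in parallel as background.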

hVEGF-A [10] = target: T9, hVEGF-A; test: cell-based or functional assay; remark: listed apart in the source
Flt-4 = target: T8, Flt-4; test: plate ELISA, growth factor coated
Procedure: (§3) Binding specificity of each peptide was established by competition ELISA. […] After blocking with block buffer (PBS with 0.5% BSA and 0.05% TWEEN®20) for 2 hours at room temperature, the receptor-Fc fusions or biotinylated receptors were serially diluted using assay buffer (PBS with 0.5% BSA and 0.05% TWEEN®20) and incubated for 1 hour at room temperature. […] Competition ELISA was conducted in an identical fashion as described above except after blocking, a mixture of serially diluted peptide containing a constant concentration of receptor-Fc fusion or biotinylated receptor (concentration of receptor was set to EC₆₀) was added and incubated for 1 hour. All recombinant human proteins and antibodies were purchased from R &D Systems (Minneapolis, Minn.).

Flt-1 = Flt-1 (human, UniProt P17948 27-756, limits assumed); test: plate ELISA, growth factor coated
Procedure: as §3

Sequence of human VEGF-A 165 (P15692 other isoform, or with tags, fused parts or gaps limits assumed): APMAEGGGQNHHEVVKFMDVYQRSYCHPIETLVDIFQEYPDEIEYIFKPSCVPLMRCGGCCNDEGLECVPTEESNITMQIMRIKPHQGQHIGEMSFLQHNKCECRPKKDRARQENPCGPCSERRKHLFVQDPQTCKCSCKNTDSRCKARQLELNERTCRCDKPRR
Sequence of Flt-1 (P17948 27-756 limits assumed): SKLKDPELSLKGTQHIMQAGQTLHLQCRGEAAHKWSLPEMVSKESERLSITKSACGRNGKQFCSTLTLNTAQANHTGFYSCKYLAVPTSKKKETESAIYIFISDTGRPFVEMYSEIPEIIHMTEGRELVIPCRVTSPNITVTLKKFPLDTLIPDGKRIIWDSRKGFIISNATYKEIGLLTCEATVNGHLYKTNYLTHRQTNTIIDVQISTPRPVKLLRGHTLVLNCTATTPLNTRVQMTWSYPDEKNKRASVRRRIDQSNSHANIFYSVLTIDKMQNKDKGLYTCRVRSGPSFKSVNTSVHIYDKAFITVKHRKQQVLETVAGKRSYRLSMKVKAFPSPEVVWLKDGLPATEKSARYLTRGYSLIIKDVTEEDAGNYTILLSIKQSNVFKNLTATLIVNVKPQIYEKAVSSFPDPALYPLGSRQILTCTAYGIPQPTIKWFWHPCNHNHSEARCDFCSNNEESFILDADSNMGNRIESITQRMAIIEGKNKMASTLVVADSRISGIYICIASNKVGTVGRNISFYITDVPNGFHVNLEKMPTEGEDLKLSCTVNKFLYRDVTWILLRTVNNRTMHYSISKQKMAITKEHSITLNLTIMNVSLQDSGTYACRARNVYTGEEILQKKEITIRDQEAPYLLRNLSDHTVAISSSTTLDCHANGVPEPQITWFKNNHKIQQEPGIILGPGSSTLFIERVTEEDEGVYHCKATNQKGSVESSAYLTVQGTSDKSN

Binder | Kd (hVEGF-A Q89A) [µM] | Kd (hVEGF-A [2]) [µM] | Kd (hVEGF-A Y21A) [µM] | Kd (hVEGF-A K48A) [µM] | Kd (hVEGF-A (8-109) [3]) [µM] | Kd (human VEGF-A 165) [µM] | Kd (mouse VEGF-A 164) [µM] | Kd (rat VEGF-A) [µM] | Kd (rabbit VEGF-A) [µM] | Cellular IC50 (hVEGF-A [6]) [µM] | IC50 (hVEGF-A [7]) [µM] | binding result (Flt-4) | further results
GCDVMQPYWGCKQDSDCLAGCVCHWYNSCG (designed binder, also called EM63) [VEGF_CKP9.63] | 2 | 0.1 | 0.585 | 0.0284 | 0.281 | 0.382 | 0.289 | 0.524 | 0.311 | 0.14 | 0.0108 |  | Kd (hVEGF-A (8-109) [1]): 0.1 µM; ELISA (hVEGF-A (8-109) [4]): 2; S/N vs BSA (hVEGF-A (8-109) [4]): 29.7; Cellular IC50 (hVEGF-A [5]): 0.14 µM; IC50 (hVEGF-A [8]): 0.146 µM
GCDVMQPYWGCGPDIDCLAGCVCHWYNSCG (designed binder, also called L2.9.63.12) [VEGF_CKP9.63.12] | 0.0365 | 0.00107 | 0.00984 | 0.00033 | 0.0032 | 0.00432 | 0.0131 | 0.00574 | 0.00254 | 0.00183 | 0.0007 |  | ELISA (hVEGF-A (8-109) [9]): 2.6; S/N vs BSA (hVEGF-A (8-109) [9]): 39.9; Cellular IC50 (hVEGF-A [10]): 0.00183 µM; FOLD [..] [..] TO VARIANT 9.54.90 (hVEGF-A [10]): 0.74 fold
VEGF-C (ligand, human, UniProt P49767 103-227, looked up) TEETIKFAAAHYNTEILKSIDNEWRKTQCMPREVCIDVGKEFGVATNTFFKPPCVSVYRCGGCCNSEGLQCMNTSTSYLSKTLFEITVPLSQGPKPVTISFANHTSCRCMSKLDVYRQVHSIIRR |  |  |  |  |  |  |  |  |  |  |  | binds | 
VEGF-D (ligand, human, UniProt O43915 93-201, looked up) FYDIETLKVIDEEWQRTQCSPRETCVEVASELGKSTNTFFKPPCVNVFRCGGCCNEESLICMNTSTSYISKQLFEISVPLTSVPELVPVKVANHTGCKCLPTAPRHPYS |  |  |  |  |  |  |  |  |  |  |  | binds | 
PIGF-2 (ligand, human, UniProt P49763-3 19-170, looked up, also called P1Gf-2; P1GF) LPAVPPQQWALSAGNGSSEVEVVPFQEVWGRSYCRALERLVDVVSEYPSEVEHMFSPSCVSLLRCTGCCGDENLHCVPVETANVTMQLLKIRSGDRPSYVELTFSQHVRCECRPLREKMKPERRRPKGRGKRRREKQRPTDCHLCGDAVPRR |  |  |  |  |  |  |  |  |  |  |  |  | binding result (Flt-1): binds
